# Laboratory results: PMC7425986 (PLoS Pathogens, 2020)
# B1: 3–25 IgG (antibody, V domains shown)
# VH: QVQLVESGGGVVQPGRSLRLSCAASGFTFSNHGLHWVRQPPGKGLEWVAVVSKDGTNEHYADSVRGRFTISRDNSKNTLYLLMKSLRLEDTAVYYCAREGYCGDDRCYSGQPDYWGQGILVTVSS
# VL: EIVLTQFPATLSLSPGERATLSCRASQSVGRYLAWYQQKPGQAPRLLIYDSSNRATGVPARFSGSGSGTDFTLSISSLEPEDFAVYFCQQRSHWPPLTFGGGTKVEIK
# B2: 3–25 Fab (Fab, V domains shown)
# VH: B1 VH
# VL: B1 VL
# Key:
# gB-p17 [1] = target: T1, gB-p17 (Human cytomegalovirus, strain AD169); assay: ELISA; conditions: both partners purified
# T1 chain: HRANETIYNTTLKYG
# [2] = target: T2, gB 15-mer library peptide, residues 69-83 (Human cytomegalovirus, strain AD169); assay: ELISA; conditions: both partners purified
# T2 construct: source: synthetic peptide, bought: JPT Peptide Technologies
# T2 chain: ETIYNTTLKYGDVVG
# gB P_(064-083) = target: T3, gB P_(064-083) (Human cytomegalovirus, strain AD169); assay: ELISA; conditions: both partners purified
# T3 construct: source: synthetic peptide
# T3 chain: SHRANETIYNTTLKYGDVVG
# [3] = target: T4, biotinylated full-length peptide, residues 59–88 of gB (Human cytomegalovirus AD169, UniProt P06473); assay: ELISA; conditions: both partners purified
# T4 construct: also called full-length peptide (white column); source: synthetic peptide, bought: JPT Peptide Technologies
# T4 chain: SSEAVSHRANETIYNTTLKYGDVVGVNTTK
# gB on HCMV whole virion = gB on HCMV whole virion (Human cytomegalovirus, virion strain …, UniProt P06473); assay: ELISA; inactivated virion (2 μg/mL) coated; 2-fold serially diluted IgG, Fab or (Fab)2, 90 min RT; HRP goat anti-human (Fab)2; conditions: one partner purified
# Chain of gB on HCMV whole virion (P06473 32-906): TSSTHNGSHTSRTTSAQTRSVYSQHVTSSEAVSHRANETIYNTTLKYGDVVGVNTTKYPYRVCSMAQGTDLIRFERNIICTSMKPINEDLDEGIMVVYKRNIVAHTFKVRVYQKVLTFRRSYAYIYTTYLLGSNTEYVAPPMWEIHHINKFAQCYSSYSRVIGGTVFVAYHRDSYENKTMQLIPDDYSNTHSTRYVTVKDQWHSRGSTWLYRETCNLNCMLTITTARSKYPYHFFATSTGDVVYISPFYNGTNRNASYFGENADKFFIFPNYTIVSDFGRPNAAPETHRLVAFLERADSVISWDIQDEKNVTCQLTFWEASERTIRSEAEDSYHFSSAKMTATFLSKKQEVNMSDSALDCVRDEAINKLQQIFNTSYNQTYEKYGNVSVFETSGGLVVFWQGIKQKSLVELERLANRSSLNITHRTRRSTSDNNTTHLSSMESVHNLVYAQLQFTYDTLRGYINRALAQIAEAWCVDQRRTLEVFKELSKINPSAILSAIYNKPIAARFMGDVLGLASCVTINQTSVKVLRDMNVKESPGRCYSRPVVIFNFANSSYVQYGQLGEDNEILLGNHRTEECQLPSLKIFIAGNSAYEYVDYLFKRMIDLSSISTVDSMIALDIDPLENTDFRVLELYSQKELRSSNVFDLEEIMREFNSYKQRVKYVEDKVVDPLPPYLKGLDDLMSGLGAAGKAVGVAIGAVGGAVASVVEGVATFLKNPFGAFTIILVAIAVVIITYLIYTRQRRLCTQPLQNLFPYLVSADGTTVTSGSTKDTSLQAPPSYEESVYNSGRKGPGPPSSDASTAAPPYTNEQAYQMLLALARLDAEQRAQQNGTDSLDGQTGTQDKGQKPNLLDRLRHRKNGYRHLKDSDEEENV
# gB-p17 [4] = target: T1, gB-p17; assay: crystal structure; conditions: both partners purified
Binder,binding result (gB-p17 [1]),binding result [2],binding result (gB P_(064-083)),binding result [3],EC50 (gB on HCMV whole virion) [nM],binding result (gB-p17 [4])
B1,binds,binds,binds,binds,18.9,
B2,,,,,66.9,binds
